# Residue numbers refer to the chain shown, from its start. Names and notes keep the numbering of the source.
# B1: I283T-N285P-N287T-Q290E-S322T-N388M-K394R-C430A-L432F-L434W-S436N-G448C-dG462 (protein)
# chain: MFLKSLREQINLLKRQGDLRIINRPVDSYLEAAAIIRRSTETKAPVPLMTNIKGYPGCSIVGGLAALSSNPEYPLSRVAMSLGLSTTASAQSIVQYLIDGLKKTPYLPVEIDSNSAPCKQNILRGEDASLAHFPIPQVHQHDGNRYVNTWGVFIVESPDGQWCNWSIQRVQYLNDRQMIALVFPSQHISDIWEEWVKIGKPMPYALVQGCEPIVPYIAGLPLLERNVNEAEYIGALYGKGIEVVKCETHDLRVPASSEVVIEGYFAITREGVEGPFGEFAGYTPPETSLEPILSITAISWQDDPIWPVVAEGKPVDEYHTCTGIGDAAAIQNVLLTANLPVSFVWVPLYSACHLMIVSINRHWRQTHPDLTSEQLTKKVGDVIHQTRMSIKLPRIVVLDDDVDPADTESLLWALATRIHPERKRYFYESAIFPWLNCYSEEERHNRKCKRVIIDALLPENHGAISSFDYAYPDDIKQRVLMHWETDFSHD
# B2: I283T-N285P-N287T-Q290E-S322T-N388M-K394R-C430A-L432F-L434W-S436N-i443aL-dG462 (protein)
# chain: B1 chain with C448G
# B3: I283T-N285P-N287T-Q290E-S322T-N388M-K394R-i421aI-C430A-L432F-L434W-S436N-dG462 (protein)
# chain: B1 chain with C448G
# B4: I283T-N285P-N287T-Q290E-S322T-N388M-K394R-i426aL-C430A-L432F-L434W-S436N-dG462 (protein)
# chain: B1 chain with C448G
# B5: I283T-N285P-N287T-Q290E-S322T-N388M-K394R-C430A-i430aI-L432F-L434W-S436N-dG462 (protein)
# chain: B1 chain with C448G
# B6: N388M-K394R-S429D-C430N-L432F-L434W-S436N (protein)
# chain: B1 chain with T283I, P285N, T287N, E290Q, T322S, S429D, A430N, C448G
# B7: I283T-N285P-N287T-Q290E-S322T-N388M-K394R-i421aD-C430A-L432F-L434W-S436N-dG462 (protein)
# chain: B1 chain with C448G
# B8: I283T-N285P-N287T-Q290E-S322T-N388M-K394R-C430A-i430aN-L432F-L434W-S436N-dG462 (protein)
# chain: B1 chain with C448G
# B9: I283T-N285P-N287T-Q290E-S322T-N388M-K394R-i424aA-C430A-L432F-L434W-S436N-dG462 (protein)
# chain: B1 chain with C448G
# B10: I283T-N285P-N287T-Q290E-S322T-N388M-K394R-C430A-L432F-L434W-S436N-i438aD-dG462 (protein)
# chain: B1 chain with C448G
# B11: I283T-N285P-N287T-Q290E-S322T-N388M-K394R-C430A-L432F-L434W-S436N-i443aR-dG462 (protein)
# chain: B1 chain with C448G
# B12: I283T-N285P-N287T-Q290E-S322T-N388M-K394R-i424aS-C430A-L432F-L434W-S436N-dG462 (protein)
# chain: B1 chain with C448G
# B13: I283T-N285P-N287T-Q290E-S322T-N388M-K394R-i421aS-C430A-L432F-L434W-S436N-dG462 (protein)
# chain: B1 chain with C448G
# B14: I283T-N285P-N287T-Q290E-S322T-N388M-K394R-C430A-i430aQ-L432F-L434W-S436N-dG462 (protein)
# chain: B1 chain with C448G
# B15: I283T-N285P-N287T-Q290E-S322T-N388M-K394R-i429aN-C430A-L432F-L434W-S436N-dG462 (protein)
# chain: B1 chain with C448G
# B16: I283T-N285P-N287T-Q290E-S322T-N388M-K394R-C430A-i430aR-L432F-L434W-S436N-dG462 (protein)
# chain: B1 chain with C448G
# B17: I283T-N285P-N287T-Q290E-S322T-N388M-K394R-i424aD-C430A-L432F-L434W-S436N-dG462 (protein)
# chain: B1 chain with C448G
# B18: I283T-N285P-N287T-Q290E-S322T-N388M-K394R-C430A-i430aC-L432F-L434W-S436N-dG462 (protein)
# chain: B1 chain with C448G
# B19: I283T-N285P-N287T-Q290E-S322T-N388M-K394R-C430A-i430aL-L432F-L434W-S436N-dG462 (protein)
# chain: B1 chain with C448G
# B20: I283T-N285P-N287T-Q290E-S322T-N388M-K394R-i421aE-C430A-L432F-L434W-S436N-dG462 (protein)
# chain: B1 chain with C448G
# B21: I283T-N285P-N287T-Q290E-S322T-N388M-K394R-C430A-i430aS-L432F-L434W-S436N-dG462 (protein)
# chain: B1 chain with C448G
# B22: I283T-N285P-N287T-Q290E-S322T-N388M-K394R-C430A-i430aH-L432F-L434W-S436N-dG462 (protein)
# chain: B1 chain with C448G
# B23: P284E-N388M-K394R-C430N-L432F-L434W-S436N (protein)
# chain: B1 chain with T283I, P284E, P285N, T287N, E290Q, T322S, A430N, C448G
# B24: I283T-N285P-N287T-Q290E-S322T-N388M-K394R-E421F-C430A-L432F-L434W-S436N-dG462 (protein)
# chain: B1 chain with E421F, C448G
# B25: S322T-N388M-K394R-C430N-L432F-L434W-S436N (protein)
# chain: B1 chain with T283I, P285N, T287N, E290Q, A430N, C448G
# B26: I283T-N285P-N287T-Q290E-S322T-N388M-K394R-i424aL-C430A-L432F-L434W-S436N-dG462 (protein)
# chain: B1 chain with C448G
# B27: I283T-N285P-N287T-Q290E-S322T-N388M-K394R-C430A-i430aG-L432F-L434W-S436N-dG462 (protein)
# chain: B1 chain with C448G
# B28: I283T-N285P-N287T-Q290E-S322T-N388M-K394R-i421aR-C430A-L432F-L434W-S436N-dG462 (protein)
# chain: B1 chain with C448G
# B29: I283T-N285P-N287T-Q290E-S322T-N388M-K394R-i421aP-C430A-L432F-L434W-S436N-dG462 (protein)
# chain: B1 chain with C448G
# B30: I283T-N285P-N287T-Q290E-S322T-N388M-K394R-C430A-L432F-L434W-S436N-i443aV-dG462 (protein)
# chain: B1 chain with C448G
# B31: I283T-N285P-N287T-Q290E-S322T-N388M-K394R-i424aW-C430A-L432F-L434W-S436N-dG462 (protein)
# chain: B1 chain with C448G
# B32: I283T-N285P-N287T-Q290E-S322T-N388M-K394R-i421aT-C430A-L432F-L434W-S436N-dG462 (protein)
# chain: B1 chain with C448G
# Test system: 3-methylcrotonic acid
# Assay type: biochemical, Yersinia frederiksenii
# Parameters: key: “+” representing a low increase in activity; “++++” representing a high increase in activity
row,Molecule,Activity relative to WT
1,B1,++++
2,B2,++++
3,B3,++++
4,B4,++++
5,B5,++++
6,B6,+
7,B7,++++
8,B8,++++
9,B9,++++
10,B10,++++
11,B11,++++
12,B12,++++
13,B13,++++
14,B14,++++
15,B15,++++
16,B16,++++

row,Molecule,Activity relative to WT
1,B17,++++
2,B18,++++
3,B19,++++
4,B20,++++
5,B21,++++
6,B22,++++
7,B23,+
8,B24,++++
9,B25,+
10,B26,++++
11,B27,++++
12,B28,++++
13,B29,++++
14,B30,++++
15,B31,++++
16,B32,++++

# From patent US20250327097A1, “ORGANISMS PRODUCING LESS CROTONIC ACID” (Global Bioenergies, priority 2021, published 2025)
